How the values were obtained:
[1] = target: β-arrestin1 (UniProt P49407); assay: GST pull-down from cell lysate; details: reference: YFP-GCN2 wild type; sites T899
[2] = target: β-arrestin2 (UniProt P32121); assay: GST pull-down from cell lysate; details: reference: YFP-GCN2 wild type; sites T899

binding against the reference [1]: stronger | binding against the reference [2]: stronger
Substance: GCN2 1-1649 (from UniProt Q9P2K8) YFP-GCN2 T899A

Source: publication PMC4357505
